This is an account of results in patent US20010041670A1, “Thrombospondin-binding region of histidine-rich glycoprotein and method of use” (priority 1999, published 2001).

“Also recorded” adds a separate entry of the source.

In experiment [1] the target is T1, 125I-TSP-1 binding to HRGP (Homo sapiens, UniProt P07996).
T1 construct: TSP-1 was purified from human platelet releasate; from tissue; host or cells: TSP-1 from human platelet releasate; HRGP from human plasma
In words: Solid phase binding assay, competition with CD36 fusion proteins. The following applies: increasing concentrations of fusion protein. Here is the method: Solid phase binding assays were performed as described (18). Briefly, HRGP in carbonate buffer was immobilized on 96-well strips (Immulon-4 Remove-a-well, Dynatech Laboratories Inc., Burlington, Mass., USA) overnight at 4° C. After blocking with 1% BSA, ^125I-TSP-1 was incubated in the presence of varying concentrations of CD36-FP in triplicate, and bound radioactivity was quantified on a gamma counter. Non-specific binding was determined by carrying out binding in the presence of excess unlabeled ligand.
TSP-1 binding to HRGP: competition with CD36.

In experiment [2] the test system is Human dermal microvascular EC (HMVEC). The experiment is described as follows: Tube formation assay on Matrigel. In kind it is cell-based. The procedure:
Tube Formation Assay. Early passage (P2 or P3) HMVEC in 0.2% MVGS were grown on 150 μl of Matrigel (Becton Dickinson, Bedford, Mass., USA) at 3×10^4 cells per well of 48-well plates. Reagents were added and cells were incubated at 5% CO2, 37° C. for 24 hours then photographed. Images were scanned and number of branched structures was counted using Scion Image software (Frederick, Md., USA).
HRGP inhibits the anti-angiogenic effect of TSP-1 in vitro. Microvascular EC were grown on Matrigel under low serum concentrations (0.2%) in the presence of bFGF (2 ng/ml), conditions which are known to induce tube formation. […] The anti-angiogenic activity of TSP-1 was abolished by the addition of HRGP (15 nM), which restored the ability of the EC to form tubular structures. (c).

For experiment [3] the test system is unchanged. The experiment is described as follows: Endothelial cell chemotaxis assay (modified Boyden chamber). Format: cell-based. The procedure: Endothelial Cell (EC) chemotaxis assays were performed as described using a modified Boyden chamber with 8 μm gelatin-coated membranes (22). Briefly, confluent flasks of HMVEC were grown in 0.1% MVGS overnight and plated at 3×10^4 cells per well on a gelatinized porous membrane (Osmonics, Minnetonka, Minn., USA). Reagents were added to wells and cells were allowed to migrate at 5% CO2, 37° C. for 4 hours. Membranes were stained and the number of cells migrating was counted. Results were expressed as the percentage of maximum cells migrating towards bFGF (38-113 cells/10 high power fields) minus the number of cells migrating in the absence of bFGF (4-13cells/10 hpf).
HRGP inhibits the anti-chemotactic effect of TSP-1. Because the type I repeat also mediates the interaction of TSP-1 with HRGP, we studied the effect of HRGP on angiogenesis. EC migration towards bFGF was measured using a modified Boyden chamber with an 8 μm gelatin-coated membrane in the presence and absence of TSP-1 (2 nM) and increasing concentrations of HRGP (0-100 nM). Data from 3 separate experiments are expressed as a percentage of migration in the presence of bFGF alone. We measured migration of CD36-expressing microvascular EC towards bFGF. The addition of TSP-1 inhibited bFGF-induced migration of EC (approx. 30%±3% of control 100% value without added TSP-1). […]

The test system of a further experiment is C57B1/6 mice. The experiment is described as follows: In vivo subcutaneous Matrigel plug assay. Here is the method:
In vivo subcutaneous Matrigel plug assays were performed as described (23). Briefly, 500 μl of Matrigel mixed with proteins or growth factors was injected subcutaneously near the abdominal midline of C57B1/6 mice. Gels were removed after 10 days, fixed in 1% paraformaldehyde, embedded in paraffin, sectioned, and stained with hematoxylin and eosin. Immunohistochemistry was performed on unstained sections using an anti-human von Willebrand factor (vWF) IgG (Dako, Glostrup, Denmark) or isotype-matched control (Sigma) and a biotin-streptavidin-peroxidase antibody and development system (Vector Laboratories, Burlingame, Calif.) as described (24) and counterstained with Mayer's hematoxylin (ImmunoGenex, San Ramon, Calif., USA). After scanning, the degree of angiogenesis was determined by counts of vWF-positive blood vessels using Scion Image. For breast tissue, frozen sections of freshly obtained human breast carcinoma were incubated with rabbit antibody to HRGP or CSVTCG or murine monoclonal antibody to TSP, or isotype-matched controls (Sigma), and developed as above. These studies were approved by the Institutional Animal Use Committee.
Matrigel mixed was injected subcutaneously into the midline of mice and resulting plugs were harvested after 10 days, fixed, and paraffin embedded, sectioned, stained with. hematoxylin and eosin, and photographed at 200× magnification. […]

A further experiment has as its system wild type C57BL/6 mice. The experiment is described as follows: In vivo corneal angiogenesis assay, wild type mice. The procedure: (§1) FIG. 3. HRGP abrogates the effect of endogenous TSP in the corneal angiogenesis assay. Pellets containing bFGF at various doses with and without HRGP (50 ng) were implanted into the corneas of wild type C57BL/6 (closed symbols) or CD 36 null mice (open symbols), and area of neovascularization was measured after five days. HRGP (--●--) augmented the dose-dependent effect of bFGF (—▪—) in the wild type mice (p=0.0004 by ANOVA). In CD36 null mice, there was an enhanced dose response to bFGF (—□—) (p=0.01), but no effect seen with the addition of HRGP (--◯--). Results represent mean±SE of>6 replicates.
(§2) In vivo corneal angiogenesis assays. Pellets composed of hydron (Hydro Med Sciences, Cranbury, N.J.) and sucralfate (Teva Pharmaceuticals, North Wales, Pa.) were mixed with proteins or growth factors, and were prepared and implanted into the comeas of C57B1/6 mice as described (38). After 5 days, eyes were viewed under a dissecting microscope and photographed with a Sony DKC-1000 digital camera. The area of neovascularization was calculated by measuring vessel length from limbus towards the pellet and number of clock hours of vascularization as described (39, 40). Studies were approved by the Institutional Animal Use Committee.
In a second type of in vivo experiment, hydron/sucralfate pellets containing bFGF, TSP-1, and/or HRGP were implanted in the corneas of C57B1/6 mice. […] Similar results were obtained when HRGP was added in a separate pellet from bFGF and TSP-1.
In fact, the dose response curve of bFGF in wild type mice in the presence of HRGP was similar to that seen with bFGF alone in the CD36 null mice. […] The resulting pellet was removed after 10 days, processed and stained for histologic examination and blood vessel counts. TSP-1 inhibited bFGF-induced blood vessel formation (14±8% of blood vessels/mm^2 seen with bFGF), and that HRGP inhibited the anti-angiogenic effect of TSP-1 (80±13%).

The next experiment has as its system CD36 null mice. The experiment is described as follows: In vivo corneal angiogenesis assay, CD36 null mice. Here is the method:
as §1, §2
In fact, the dose response curve of bFGF in wild type mice in the presence of HRGP was similar to that seen with bFGF alone in the CD36 null mice. […]

For a further experiment, the target named is TSP-1 (Homo sapiens, UniProt P07996). The following applies: saturable, reversible binding; read-out: affinity of HRGP binding to TSP-1; cited from earlier work.
Sequence of TSP-1 (P07996 19-1170): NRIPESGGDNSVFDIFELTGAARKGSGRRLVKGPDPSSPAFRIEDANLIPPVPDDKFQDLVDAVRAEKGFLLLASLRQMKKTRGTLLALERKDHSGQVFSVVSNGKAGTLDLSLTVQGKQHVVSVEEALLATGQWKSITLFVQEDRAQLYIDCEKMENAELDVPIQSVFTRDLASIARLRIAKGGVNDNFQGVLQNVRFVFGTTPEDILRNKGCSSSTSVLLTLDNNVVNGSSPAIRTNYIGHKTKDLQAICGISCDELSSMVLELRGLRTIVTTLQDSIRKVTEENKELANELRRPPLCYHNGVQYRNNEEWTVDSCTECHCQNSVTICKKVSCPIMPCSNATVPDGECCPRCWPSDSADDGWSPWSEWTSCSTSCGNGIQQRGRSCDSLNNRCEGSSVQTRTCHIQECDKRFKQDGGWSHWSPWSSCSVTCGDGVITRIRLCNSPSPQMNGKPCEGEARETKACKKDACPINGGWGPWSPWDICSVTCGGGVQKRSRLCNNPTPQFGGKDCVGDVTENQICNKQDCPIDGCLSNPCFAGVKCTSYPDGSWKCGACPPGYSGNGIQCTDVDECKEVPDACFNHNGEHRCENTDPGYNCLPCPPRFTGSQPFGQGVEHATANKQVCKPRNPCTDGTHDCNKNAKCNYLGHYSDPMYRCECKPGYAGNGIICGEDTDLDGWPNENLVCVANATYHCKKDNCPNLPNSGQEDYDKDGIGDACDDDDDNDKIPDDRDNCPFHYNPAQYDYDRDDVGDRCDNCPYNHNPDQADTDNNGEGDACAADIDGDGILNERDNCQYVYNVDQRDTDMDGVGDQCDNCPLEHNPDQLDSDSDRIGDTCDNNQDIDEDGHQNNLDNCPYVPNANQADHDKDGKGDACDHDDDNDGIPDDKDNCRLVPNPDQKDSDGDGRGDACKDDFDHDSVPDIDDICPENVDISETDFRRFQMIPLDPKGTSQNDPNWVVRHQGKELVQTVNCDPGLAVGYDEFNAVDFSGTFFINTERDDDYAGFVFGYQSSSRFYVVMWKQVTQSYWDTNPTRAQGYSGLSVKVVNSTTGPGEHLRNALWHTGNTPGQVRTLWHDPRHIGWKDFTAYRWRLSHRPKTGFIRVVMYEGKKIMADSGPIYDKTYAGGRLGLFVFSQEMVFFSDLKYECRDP

T1 sequence (P07996 19-1170): as above

B1: CD36 FP298-439: CD36-GST fusion protein which does not bind TSP-1 (protein)
chain: KAFASPVENPDNYCFCTEKIISKNCTSYGVLDISKCKEGRPVYISLPHFLYASPDVSEPIDGLNPNEEEHRTYLDIEPITGFTLQFAKRLQVNLLVKPSEKIQVLKNLKRNYIVPILWLNETGTIGDEKANMFRSQVTGKIN
modifications: left off: a dimerising Fc or GST
On to B1, for which the “inhibition of 125I-TSP-1 binding to immobilized HRGP” value in experiment [1] is recorded as “had no effect”.

B2: HRGP: Histidine-rich glycoprotein, plasma protein purified from human plasma by lys-plasminogen affinity chromatography (protein)
chain: VSPTDCSAVEPEAEKALDLINKRRRDGYLFQLLRIADAHLDRVENTTVYYLVLDVQESDCSVLSRKYWNDCEPPDSRRPSEIVIGQCKVIATRHSHESQDLRVIDFNCTTSSVSSALANTKDSPVLIDFFEDTERYRKQANKALEKYKEENDDFASFRVDRIERVARVRGGEGTGYFVDFSVRNCPRHHFPRHPNVFGFCRADLFYDVEALDLESPKNLVINCEVFDPQEHENINGVPPHLGHPFHWGGHERSSTTKPPFKPHGSRDHHHPHKPHEHGPPPPPDERDHSHGPPLPQGPPPLLPMSCSSCQHATFGTNGAQRHSHNNNSSDLHPHKHHSHEQHPHGHHPHAHHPHEHDTHRQHPHGHHPHGHHPHGHHPHGHHPHGHHPHCHDFQDYGPCDPPPHNQGHCCHGHGPPPGHLRRRGPGKGPRPFHCRQIGSVYRLPPLRKGEVLPLPEANFPSFPLPHHKHPLKPDNQPFPQSVSESCPGKFKSGFPQVSMFFTHTFPK
On to B2, for which the “effect on the anti-angiogenic activity of TSP-1 (tube formation)” value in experiment [2] (HRGP 15 nM added to TSP-1 2 nM + bFGF 2 ng/ml) was “abolished”. In experiment [2] (agent alone, low serum, Matrigel), the “induction of tube formation” value is given as “did not directly induce tube formation”. Also, the figures for the “EC migration towards bFGF, percentage of control” value in experiment [3] (TSP-1 2 nM plus 10 nM HRGP) and in experiment [3] (TSP-1 2 nM plus 100 nM HRGP) were “approx. 30%±15%” and “approx. 75%±15%”, respectively. For the same molecule, the “blood vessels/mm^2, % of that seen with bFGF” value in the experiment with C57B1/6 mice (HRGP added to bFGF + TSP-1 in Matrigel, 10 days) turned out to be 80±13%. In the experiment on C57B1/6 mice (plugs harvested after 10 days, representative images of 4 experiments), the “angiogenesis in Matrigel plug (histology)” value is “had no effect”. For the same molecule, the “effect on angiogenic activity (dose response) of bFGF” value in the experiment on wild type C57BL/6 mice (HRGP 50 ng, bFGF 2.5 to 10 ng, wild type mice, p=0.0004 by ANOVA) is given as “significantly increased; also recorded: augmented”. Moreover, the “Area of Neovascularization (mm^2) ± SE” value was 0 ± 0 mm^2 with wild type C57BL/6 mice (Wild type mouse, corneal pellet, 5 days) and 0.02 ± 0.004 mm^2 with CD36 null mice (CD36 −/− mouse, corneal pellet, 5 days). In addition, the “induction of corneal angiogenesis by agent alone” value in the experiment with wild type C57BL/6 mice (pellet without bFGF) was “did not induce angiogenesis”. Also, the “effect on sensitivity to low concentrations of bFGF” value in the experiment on CD36 null mice (HRGP 50 ng, CD36 null mice) is “did not effect sensitivity; also recorded: no effect”. In addition, the Kd with TSP-1 is 7 nM.
